This is an account of results in the supplement of paper PMC9170038.

The series has as its system MS2 coat protein. The experiment in a line: apparent KD of MS2 coat protein; designed switch direction (-1 OFF switch, 1 ON switch): -1; higher = weaker reporter binding. An outline of the steps: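 For each design, the apparent KD is the median over clusters of curves fitted to normalised cluster fluorescence. Clusters held RNA switches with common flanks, transcribed on Illumina chips by stalled E. coli RNA polymerase. These were titrated with SNAP-549-labelled MS2 coat protein, doubling from 0.7 or 1.5 nM to 3 µM, without input, with 200 uM small-molecule ligand, or with an oligonucleotide input.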

The mark [1] stands for this setting: input ligand: microRNA oligo, concentration not stated.
[2] abbreviates: Eterna round: R95, input ligand: microRNA oligo, concentration not stated.
Where [3] appears, read: Eterna round: R95, input ligand: FMN 200 uM.
The mark [4] stands for this setting: Eterna round: R95, input ligand: none.

Turning to “AAAGAGUGAGGAUAUACAUGAGGAUCACCCAUGUACGUAAUACAAUACGGGUGACGACGUAGAAGGCAUUGCUG [Eternabot (Original) Solution 28] (Eterna round: R97, puzzle: Exclusion 3)”, the “apparent KD of MS2 coat protein” value was determined as 198 nM (input ligand: FMN 200 uM) and 781 nM (input ligand: none).

For “UUCGUGCAGCUUUGCUGUACGCGUACAUGAGGAUCACCCAUGUAGGAUAUGGUAGGCUUUGCUUACUAGAAGGAUAGUGUGAUC [JL EXNG3 1.30] (Eterna round: R96, puzzle: Exclusion NG 3)”, the “apparent KD of MS2 coat protein” value (input ligand: FMN 200 uM) amounted to 137 nM, the “apparent KD of MS2 coat protein” value under setting [1] came to 123 nM and the “apparent KD of MS2 coat protein” value (input ligand: none) stood at 88.7 nM.

As for “CCGCAAAUGCAGGAUAUCGUAUCGGAUACGAUACGAGAAGGGCGUACAUGAGGAUCACCCAUGUGUCCUAGCGG [Fiskers Ex 6 - 42] (puzzle: Exclusion 6)”, the “apparent KD of MS2 coat protein” value under setting [2] came out at 16.6 nM.

On to “ACAAGCGAAAGGCUCGUCUUAUUUUUGUAGAGGUUCUAAACAUGAGGAUCACCCAUGUAGUGGUUAUGGUGGAGGUA [JR_SV3TOV2_Sub070] (puzzle: Sensor v3, turn-off variant 2)”, for which the “apparent KD of MS2 coat protein” value under setting [3] came to 57.1 nM, the “apparent KD of MS2 coat protein” value under setting [2] turned out to be 64.4 nM and the “apparent KD of MS2 coat protein” value under setting [4] worked out at 74.6 nM.

As to “AAAUACAAGUAAAGAUCCUACAUGAGGAUCACCCAUGUGCUCGUCUUAUAAAGUACUAUCACGAAAGUGAUAGUACA [Sensor 3, v1 - 20] (puzzle: Sensor v3, turn-off variant 1)”, the “apparent KD of MS2 coat protein” value came to 88.6 nM under setting [3], 13.9 nM under setting [2] and 112 nM under setting [4].

Consider “AAAGGUGAGUAGGAUAUCCACGCACGAAUAAAGGGAGAAGGACUUACAUGAGGAUCACCCAUGUAAGGUGGUAA [Orte] (puzzle: Exclusion 6)”, for which the “apparent KD of MS2 coat protein” value turned out to be 17.1 nM under setting [3], 14.3 nM under setting [2] and 13.8 nM under setting [4].

“ACAUGAGGAUCACCCAUGUCCGGUUGGUCUGUUCCGGCUGUCGAGGAUAUAGUCCGGUGUUCGCGCUAGAAGGUGAGGGCUGGA [Aenatbe mod 46] (Eterna round: R96, puzzle: Exclusion NG 3)”: the “apparent KD of MS2 coat protein” value (input ligand: FMN 200 uM) was determined as 775 nM, the “apparent KD of MS2 coat protein” value under setting [1] stood at 259 nM and the “apparent KD of MS2 coat protein” value (input ligand: none) was found to be 500 nM.

In the case of “AAAGAACAUGAGGAUCACCCAUGUGAGGAUAUGCGAAAACCGCUGACAAACCAGACGGGCAGAAGGCAUAUGGU [Birima] (puzzle: Exclusion 1)”, under setting [2], the “apparent KD of MS2 coat protein” value is 56.2 nM.

In the case of “GCAGCAUAGAUUACUAGCUGUUACAUGAGGAUCACCCAUGUUCAGGAUAUGGUCUGGAUUACAGGCCAGAAGGGAACAAGCUGC [finally!] (Eterna round: R96, puzzle: Exclusion NG 3)”, the “apparent KD of MS2 coat protein” value by setting is: (input ligand: FMN 200 uM) 14.2 nM; under setting [1], 12.9 nM; (input ligand: none) 16.6 nM.

With “GACCCUAGGGUCAGACCCACAAGCUUUUUGCUCGUUUUAACAUGAGGAUCACCCAUGUCUAGUGGAUCUGAUCGGGC [Geores] (puzzle: Sensor v3, turn-off variant 2)”, the “apparent KD of MS2 coat protein” value runs as follows: under setting [3], 18.4 nM; under setting [2], 76.4 nM; under setting [4], 17.2 nM.

Regarding “CGGUGUAGAGGAUAUACGUGAAUUUUGUUAUAUAAUAAUUUACAUGAGGAUCACCCAUGUAGAAGGCUAUAGCG [JR_Ex2_Sub084] (Eterna round: R97, puzzle: Exclusion 2)”, the “apparent KD of MS2 coat protein” value by setting is: (input ligand: FMN 200 uM) 23.4 nM; (input ligand: none) 24.2 nM.

As for “AAUUUGCAAGCGAGAUCCCACAUGAGGAUCACCCAUGUGCUCGUCUUAUAAGGUACUGUGACAAAAGUCACGGUACC [Mat - Sensor, turn-off var - Eli Mod - D95] (Eterna round: R97, puzzle: Sensor, turn-off variant 1)”, the “apparent KD of MS2 coat protein” value reads like this: (input ligand: FMN 200 uM) 16.6 nM; (input ligand: none) 16.8 nM.

As to “AUUUAGAGAGGAUAUAUUAUGUGAAACAUGAGGAUCACCCAUGUAAUAUGAUGGAUGUAAAUAGAAGGCUCAUUUA [Mat - Exclusion 5 - JL mod - D23] (puzzle: Exclusion 5)”, the “apparent KD of MS2 coat protein” value under setting [3] came out at 32.9 nM, the “apparent KD of MS2 coat protein” value under setting [2] was found to be 43.5 nM and the “apparent KD of MS2 coat protein” value under setting [4] worked out at 56.4 nM.

Consider “CGGCGGGUCGCGCUGGUCCACAUGAGGAUCACCCAUGUUCCGGCACGCUGAAGGCACACGCUUUUUGCUCGUCUUAU [Sensor V1 S1] (Eterna round: R97, puzzle: Sensor, turn-off variant 1)”, for which the “apparent KD of MS2 coat protein” value by setting is: (input ligand: FMN 200 uM) 32.2 nM; (input ligand: none) 35 nM.

With “GAAAAGGUAGGAUAUACGAAAAAAAAGGGUAGAAAAAAAACACAUGAGGAUCACCCAUGUAGAAGGACCAUAAG [salish99_ex2_r3_091] (puzzle: Exclusion 2)”, the “apparent KD of MS2 coat protein” value was 63.3 nM under setting [3], 29.9 nM under setting [2] and 29.2 nM under setting [4].

As for “AAGAAGAAGUAAGGAUAUGAAGAUUUGGUGGUGACAUGAGGAUCACCCAUGUGAAAACAAUAAGAUCAGAAGGUAUAAGAAGAA [AK ExNG2-3] (Eterna round: R96, puzzle: Exclusion NG 2)”, the “apparent KD of MS2 coat protein” value by setting is: (input ligand: FMN 200 uM) 522 nM; under setting [1], 434 nM; (input ligand: none) 405 nM.

With “ACGCGUGGCUAGGAUAUGCAGAAAUCUAGCCAGGCAGAAGGAGCCACAUGAGGAUCACCCAUGUGGUGAUCCUC [eternacac ex6r4 sub1] (Eterna round: R97, puzzle: Exclusion 6)”, the “apparent KD of MS2 coat protein” value (input ligand: FMN 200 uM) came to 10.8 nM and the “apparent KD of MS2 coat protein” value (input ligand: none) was 9.98 nM.

For the sequence “UGUUGUUGCGUAGGAUAUUGCCAACAGGCAGUAGGAUAUGCGAAAGCAGAAGGACCGCCAACAGGCGAGAAGGACGGGACAACU [pwkr exNG2 2xF7 2xFMN.13] (Eterna round: R96, puzzle: Exclusion NG 2)”, the “apparent KD of MS2 coat protein” value turned out to be 177 nM (input ligand: FMN 200 uM), 39.4 nM under setting [1] and 72.6 nM (input ligand: none).

For “GAAAAGUGAGGAUAUGCUCGAUCCUGGCACCAAGUGAAGUCACUUGAGGAUCACCCAAGUAGAAGGCACAUAAA [Tiederes] (Eterna round: R97, puzzle: Exclusion 2)”, the “apparent KD of MS2 coat protein” value (input ligand: FMN 200 uM) was 206 nM and the “apparent KD of MS2 coat protein” value (input ligand: none) is 55.3 nM.

As to “GUGAAGUGAGGAUAUACGAGAGAGGCUGAACCGGACGAGAAGUAGAAGGCACAUGAGGAUCACCCAUGUAAGGA [JR_Exclu4_Sub022] (puzzle: Exclusion 4)”, the “apparent KD of MS2 coat protein” value under setting [2] was 34.4 nM.

In the case of “CGUAGCAAAGUGAGGAUAUCUAGAGCCUCGGCUCUAGAGAAGGCACAUGAGGAUCACCCAUGUGAUUAGCUACG [BmEx4/9-A2] (Eterna round: R97, puzzle: Brourd's mod of Exclusion 4)”, the “apparent KD of MS2 coat protein” value reads like this: (input ligand: FMN 200 uM) 173 nM; (input ligand: none) 24.1 nM.

Consider “AGCUGUGGCCAAGGAUAUCUAGCCUUAAAUACCGACGUAUAGUCGGACAUGAGGAUCACCCAUGUGGAGAAGGUGGUCUCAGCA [Eli eng2 - 044] (Eterna round: R96, puzzle: Exclusion NG 2)”, for which the “apparent KD of MS2 coat protein” value (input ligand: FMN 200 uM) amounted to 82 nM, the “apparent KD of MS2 coat protein” value under setting [1] is 53 nM and the “apparent KD of MS2 coat protein” value (input ligand: none) amounted to 74.3 nM.

Regarding “UUAUUUCAAGCAAGAUCCUACAUGAGGAUCACCCAUGUGCUCGUCUUAUAAGGUACAGUGACGAAAGUCACAGUACC [Sensor 3, v1 - 000] (puzzle: Sensor v3, turn-off variant 1)”, the “apparent KD of MS2 coat protein” value by setting is: under setting [3], 173 nM; under setting [2], 152 nM; under setting [4], 202 nM.
